Test results reported in US20030163841A1 (YALE UNIVERSITY, published 2003).

How the values were obtained:
[1] = molecular target: the molecule itself; test: chemical cross-linking (DSub or EGS) of in vitro translated protein, SDS-PAGE, fluorography
Description: Protein immunoblot analysis was performed exactly as described previously (McNellis et al., 1994a). pAR-COP1 , a FLAG-tagged COP1 that has an additional peptide […] at the N-terminus (Matsui et al., 1995), was in vitro transcribed and translated using TNT coupled reticulocyte lysate system (Promega) and radiolabelled with [³⁵S]methionine (Amersham). For chemical cross-linking, 2 μl of translation mix (with radiolabelled proteins) was diluted to 18 μl with a reaction buffer (100 mM potassium phosphate [pH 7.7]; 100 mM NaCl; 0.1 mM ZnSO₄; 10% glycerol; 0.1% NonidetP-40; 4 mM DTT) and cross-linked with 2 μl of freshly diluted Dsub or EGS in dimethyl sulfoxide. For a negative control, 2 μl of dimethyl sulfoxode was added to the reaction. After 20 min incubation at room temperature, the reaction was quenched by addition of 2 μl of 1 M glycine (for Dsub) or 200 mM lysine (for EGS) and 22 μl of 2× Laemmli SDS-PAGE buffer. Samples were boiled for 5 min, separated by 6% SDS-PAGE, and fluorographed after treatment with Amplify (Amersham).
To better understand the COP1 self-association, we performed a chemical cross-linking analysis of in-vitro translated COP1 protein in solution. A FLAG-COP1 epitope tagged protein was in-vitro translated and then cross-linked with either dimethylsuberimidate (DSub) or ethylene glycobis (succinimidylsuccinate) (EGS). […]

[2] = molecular target: the molecule itself; test: yeast two-hybrid, LacZ reporter
Description: (C) Delimitation of Cop1 self-association domain utilizing the yeast two-hybrid system. For baits (Bait), Cop1 domain fragments were fused with the LexA DNA binding domain (LexA). For preys (Prey), the COP1 domain fragments were fused with the synthetic transcription activation domain (AD). Numbers and names at the left indicate a pairwise combination of bait and prey constructs in each row. The graph at the right indicates the relative LacZ reporter activity in yeast cells corresponding to combinations of bait and prey constructs presented in each row. For each pairwise combination, at least 8 individual transformants were used to measure the LacZ activity. Error bars represent standard deviation. Combination 1 (LexA: N282) and 2 (N282:AD) serve as negative controls.
pKS-RING and pKS-Coil are digested with EcoRI and XhoI, and rest of the COP1 domain cassettes in the pKSm vectors were digested with EcoRI. Fragments were then ligated into pEG202 or pJG4-5 to generate COP1 domains fused to the LexA DNA binding protein or the synthetic activation domain, respectively (Golemis et al., 1995). Generation of pEG-N282, pJG-N282, pJG-COP1, and pJG-ΔRING was described elsewhere (McNellis et al., 1996; Ang et al., 1998). To generate pJG-GUS-ΔRΔC, pRTL-GUS-ΔRΔC was cleaved with NcoI and XbaI and then ligated into NcoI/XbaI digested pKS-COP1. […]

[3] = molecular target: the molecule itself; test: gel filtration (Superdex-200) of seedling extracts, immunoblot of fractions
Description: For gel filtration chromatography, 8-day-old light- or dark grown seedlings were homogenized with 2× gel filtration buffer containing 50 mM Tris-HCl (pH 7.5), 440 mM NaCl, 2 mM MgCl₂, 2 μM ZnSO₄, 0.5 mM PMSF and centrifuged for 5 min at 4° C. Total soluble protein was fractionated through a 25 ml Superdex-200 FPLC column (Pharmacia) with 1× gel filtration buffer at a flow rate of […]. All procedures were carried out at 4° C. and, for dark samples, under dim green safe light. Consecutive fractions of 0.5 ml each were collected after the void volume (7.5 ml), concentrated, and subjected to 10% SDS-PAGE followed by a protein immunoblot analysis. The molecular weight standards for size estimation of the native COP1 protein were as follows: blue dextran (void); thyroglobulin (669 kDa); ferritin (440 kDa); catalase (232 kDa); aldolase (158 kDa); BSA (67 kDa); ovalbumin (43 kDa); and ribonuclease A (13.7 kDa) (Sigma).
To confirm the presence of COP1 dimers in vivo, a gel-filtration analysis was performed using protein extracts from light- or dark-grown Arabidopsis wild-type seedlings. […] However, the COP1 peak was very broad and contained a broad shoulder toward the larger molecular size fractions (FIG. 1B). Therefore it is possible that a portion of COP1 may present as homo-oligomers or in heterogeneous associations with other molecules in vivo. […]

B1: FLAG-COP1 epitope tagged protein (pAR-COP1), in vitro translated and [35S]methionine labelled (other, Arabidopsis)
chain: DDADTKDDDDKMEEISTDPVVPAVKPDPRTSSVGEGANRHENDDGGSGGSEIGAPDLDKDLLCPICMQIIKDAFLTACGHSFCYMCIITHLRNKSDCPCCSQHLTNNQLYPNFLLDKLLKKTSARHVSKTASPLDQFREALQRGCDVSIKEVDNLLTLLAERKRKMEQEEAERNMQILLDFLHCLRKQKVDELNEVQTDLQYIKEDINAVERHRIDLYRARDRYSVKLRMLGDDPSTRNAWPHEKNQIGFNSNSLSIRGGNFVGNYQNKKVEGKAQGSSHGLPKKDALSGSDSQSLNQSTVSMARKKRIHAQFNDLQECYLQKRRQLADQPNSKQENDKSVVRREGYSNGLADFQSVLTTFTRYSRLRVIAEIRHGDIFHSANIVSSIEFDRDDELFATAGVSRCIKVFDFSSVVNEPADMQCPIVEMSTRSKLSCLSWNKHEKNHIASSDYEGIVTVWDVTTRQSLMEYEEHEKRAWSVDFSRTEPSMLVSGSDDCKVKVWCTRQEASVINIDMKANICCVKYNPGSSNYIAVGSADHHIHYYDLRNISQPLHVFSGHKKAVSYVKFLSNNELASASTDSTLRLWDVKDNLPVRTFRGHTNEKNFVGLTVNSEYLACGSETNEVYVYHKEITRPVTSHRFGSPDMDDAEEEAGSYFISAVCWKSDSPTMLTANSQGTIKVLVLAA
notes: range 1-675; Monomer 78 kDa, cross-linked product about 160 kDa; A second, lower band may start at an internal methionine of COP1; also called FLAG-tagged COP1
- binding result [1]: binds

B2: Coil domain of COP1 (pKS-Coil cassette) (other)
chain: MDKLLKKTSARHVSKTASPLDQFREALQRGCDVSIKEVDNLLTLLAERKRKMEQEEAERNMQILLDFLHCLRKQKVDELNEVQTDLQYIKEDINAVERHRIDLYRARD
notes: The cassette used in yeast starts at aa104 (L104M); Fused to LexA or AD in yeast; also called coiled-coil domain
- binding result [2]: binds

B3: endogenous Arabidopsis COP1 protein (extracts of wild-type seedlings) (other, UniProt P43254 1-675, looked up)
chain: MEEISTDPVVPAVKPDPRTSSVGEGANRHENDDGGSGGSEIGAPDLDKDLLCPICMQIIKDAFLTACGHSFCYMCIITHLRNKSDCPCCSQHLTNNQLYPNFLLDKLLKKTSARHVSKTASPLDQFREALQRGCDVSIKEVDNLLTLLAERKRKMEQEEAERNMQILLDFLHCLRKQKVDELNEVQTDLQYIKEDINAVERHRIDLYRARDRYSVKLRMLGDDPSTRNAWPHEKNQIGFNSNSLSIRGGNFVGNYQNKKVEGKAQGSSHGLPKKDALSGSDSQSLNQSTVSMARKKRIHAQFNDLQECYLQKRRQLADQPNSKQENDKSVVRREGYSNGLADFQSVLTTFTRYSRLRVIAEIRHGDIFHSANIVSSIEFDRDDELFATAGVSRCIKVFDFSSVVNEPADMQCPIVEMSTRSKLSCLSWNKHEKNHIASSDYEGIVTVWDVTTRQSLMEYEEHEKRAWSVDFSRTEPSMLVSGSDDCKVKVWCTRQEASVINIDMKANICCVKYNPGSSNYIAVGSADHHIHYYDLRNISQPLHVFSGHKKAVSYVKFLSNNELASASTDSTLRLWDVKDNLPVRTFRGHTNEKNFVGLTVNSEYLACGSETNEVYVYHKEITRPVTSHRFGSPDMDDAEEEAGSYFISAVCWKSDSPTMLTANSQGTIKVLVLAA
notes: range 1-675; Gel filtration peak at about 160 kDa is read as a dimer; The peak is broad, so oligomers, other partners and some monomer are not excluded; also called native COP1 protein
- binding result [3]: binds
